Laboratory results: PMC9743467 (Matter, 2022)

Molecular target: Recombinant human ACE2 protein (carrier free) (human, UniProt Q9BYF1)
Assay: zeta potential

Recombinant human ACE2 protein (carrier free), sequence (Q9BYF1 18-740): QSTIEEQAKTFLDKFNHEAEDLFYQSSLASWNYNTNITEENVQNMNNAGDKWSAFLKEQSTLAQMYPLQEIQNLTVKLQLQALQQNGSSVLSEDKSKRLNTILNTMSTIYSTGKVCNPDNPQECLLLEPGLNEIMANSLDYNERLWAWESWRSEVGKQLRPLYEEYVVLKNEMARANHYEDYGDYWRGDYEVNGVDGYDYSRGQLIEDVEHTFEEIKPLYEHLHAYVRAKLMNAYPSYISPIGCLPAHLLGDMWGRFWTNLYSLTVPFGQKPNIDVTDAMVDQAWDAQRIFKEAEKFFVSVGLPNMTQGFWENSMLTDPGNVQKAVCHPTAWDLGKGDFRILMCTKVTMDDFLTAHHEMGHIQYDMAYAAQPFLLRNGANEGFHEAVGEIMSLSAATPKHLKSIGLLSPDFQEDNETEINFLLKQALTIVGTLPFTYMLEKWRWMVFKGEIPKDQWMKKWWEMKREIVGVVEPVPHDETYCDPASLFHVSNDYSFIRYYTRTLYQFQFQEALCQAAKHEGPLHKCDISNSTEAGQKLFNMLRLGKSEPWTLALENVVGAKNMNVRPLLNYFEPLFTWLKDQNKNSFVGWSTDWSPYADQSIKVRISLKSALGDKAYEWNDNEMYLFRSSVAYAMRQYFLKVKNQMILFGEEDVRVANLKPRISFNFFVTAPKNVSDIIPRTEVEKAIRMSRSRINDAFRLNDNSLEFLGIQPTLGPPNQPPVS

B1: ACE2-binding Ligand peptide amphiphile (C12-VVVGKK-OEG4-GG-DX600) (peptide)
peptide: VVVGKKGGGDYSHCSPLRYYPWWKCTYPDPEGGG
- binding result: binds
